From PMC3442271

T1: Endonuclease III (Endo III);XerC;XerD (Escherichia coli;Vibrio cholerae;Vibrio …, UniProt P0AB83;Q9KVL4;Q9KPE9 1-211;1-311;1-302, ||)
T1 sequence 1: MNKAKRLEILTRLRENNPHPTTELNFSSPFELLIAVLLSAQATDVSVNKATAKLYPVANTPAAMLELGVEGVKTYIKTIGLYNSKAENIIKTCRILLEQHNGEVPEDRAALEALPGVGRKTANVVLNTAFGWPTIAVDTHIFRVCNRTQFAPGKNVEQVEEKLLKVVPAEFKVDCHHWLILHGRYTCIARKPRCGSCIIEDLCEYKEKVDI
T1 sequence 2: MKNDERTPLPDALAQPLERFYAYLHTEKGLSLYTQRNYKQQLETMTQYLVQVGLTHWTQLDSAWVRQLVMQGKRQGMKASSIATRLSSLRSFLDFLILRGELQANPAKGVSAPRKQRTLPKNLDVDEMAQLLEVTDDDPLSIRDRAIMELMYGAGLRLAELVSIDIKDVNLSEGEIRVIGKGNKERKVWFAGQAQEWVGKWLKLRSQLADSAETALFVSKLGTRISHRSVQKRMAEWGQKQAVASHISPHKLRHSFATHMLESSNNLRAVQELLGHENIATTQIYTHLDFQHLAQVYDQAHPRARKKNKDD
T1 sequence 3: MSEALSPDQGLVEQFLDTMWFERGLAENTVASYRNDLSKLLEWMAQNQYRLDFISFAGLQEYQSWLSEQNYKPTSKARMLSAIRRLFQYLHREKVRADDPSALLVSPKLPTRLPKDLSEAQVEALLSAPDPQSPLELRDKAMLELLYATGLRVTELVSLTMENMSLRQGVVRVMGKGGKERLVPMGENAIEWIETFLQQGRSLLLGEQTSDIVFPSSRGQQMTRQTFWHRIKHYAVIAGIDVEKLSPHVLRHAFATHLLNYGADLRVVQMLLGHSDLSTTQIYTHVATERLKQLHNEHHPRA

T2: Endonuclease III (Endo III) (Escherichia coli, UniProt P0AB83 1-211)
T2 sequence: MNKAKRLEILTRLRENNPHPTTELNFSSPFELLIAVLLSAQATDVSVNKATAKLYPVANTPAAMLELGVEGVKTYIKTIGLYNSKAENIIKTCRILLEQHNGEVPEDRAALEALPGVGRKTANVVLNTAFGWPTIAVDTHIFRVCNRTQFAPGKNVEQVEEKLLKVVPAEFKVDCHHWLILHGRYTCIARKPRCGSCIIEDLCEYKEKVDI

T3: XerC;XerD (Vibrio cholerae;Vibrio cholerae, UniProt Q9KVL4;Q9KPE9 1-311;1-302, |)
T3 sequence 1: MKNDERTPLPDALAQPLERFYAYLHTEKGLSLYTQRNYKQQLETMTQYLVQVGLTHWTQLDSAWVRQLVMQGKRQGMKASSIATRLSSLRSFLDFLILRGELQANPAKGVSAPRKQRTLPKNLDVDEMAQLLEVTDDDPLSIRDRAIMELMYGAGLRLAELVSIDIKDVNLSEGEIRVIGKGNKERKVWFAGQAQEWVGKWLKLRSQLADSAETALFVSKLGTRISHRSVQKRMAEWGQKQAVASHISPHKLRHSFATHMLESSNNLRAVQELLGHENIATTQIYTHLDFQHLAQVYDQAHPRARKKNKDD
T3 sequence 2: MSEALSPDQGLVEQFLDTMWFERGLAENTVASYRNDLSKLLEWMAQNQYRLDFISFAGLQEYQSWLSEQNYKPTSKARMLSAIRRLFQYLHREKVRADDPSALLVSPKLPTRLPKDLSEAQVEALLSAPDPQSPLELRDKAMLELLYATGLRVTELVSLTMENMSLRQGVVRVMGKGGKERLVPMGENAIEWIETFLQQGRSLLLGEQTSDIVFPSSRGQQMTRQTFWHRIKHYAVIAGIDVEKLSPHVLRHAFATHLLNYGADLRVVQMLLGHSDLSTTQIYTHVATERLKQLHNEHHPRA


Legend:
[1] = target: T1, Endonuclease III (Endo III);XerC;XerD; test: footprinting
[2] = target: T2, Endonuclease III (Endo III); test: EMSA
XerC;XerD = target: T3, XerC;XerD; test: footprinting
[3] = target: T2, Endonuclease III (Endo III); test: competition

Binder	binding result [1]	binding result [2]	binding result (XerC;XerD)	binding result [3]
attP(+)/dif1 pseudo-HJ (structured_DNA) DNA 1: GATCCGTGATCACGCTGAACGCGTTTTAGCAGTGCGCATTATGTGGCGCGGCATTATGTTGAGGGGCCTAACGCCTAAAGCGGCCGCCTA DNA 2: ATCGTAGGCGGCCGCTTTAGGCGTTAGGCCCCGTAACATAATGGCGTATAATACGCATTCGACCGTTGCCGGATCCG DNA 3: CGATCGGATCCGGCAACGGTCGAGTGCGTATTATGTATGTTATGTTAAATGACATCCTGAGATCTCGA DNA 4: TCGATCGAGATCTCAGGATGTCATTTAACATAACATACATAATGCGCACTGCTAAAACGCGTTCAGCGTGATCACG	binds	binds	binds	
dif1/dif1 HJ (structured_DNA) DNA 1: GATCCGTGATCACGCTGAACGCGTTTTAGCAGTGCGCATTATGTATGTTATGTTAAATGGCCTAACGCCTAAAGCGGCCGCCTA DNA 2: ATCGTAGGCGGCCGCTTTAGGCGTTAGGCCATTTAACATAACATACATAATGCGCACTCGACCGTTGCCGGATCCG DNA 3: CGATCGGATCCGGCAACGGTCGAGTGCGCATTATGTATGTTATGTTAAATGACATCCTGAGATCTCGA DNA 4: TCGATCGAGATCTCAGGATGTCATTTAACATAACATACATAATGCGCACTGCTAAAACGCGTTCAGCGTGATCACG				binds
